From the RNAGym collection of RNA variant scans (doi:10.1073/pnas.2313332121)
Variants at the floor of the assay were thinned out.

B1: TPR 5TU (parent)
chain: GGAUCUUCUCGAUCUAACAAAAAAGACAAAUCUGCCACAAAGCUUGAGAGCAUCUUCGGAUGCAGAGGCGGCAGCCUUCGGUGGCGCGAUAGCGCCAACGUUCUCAACUAUGACACGCAAAACGCGUGCUCCGUUGAAUGGAGUUUAUCAUG

Variants of: B1
Experiment: polymerase ribozyme fitness, log enrichment relative to wild type (log ratio); higher = more active; in vitro selection for triplet polymerase activity
Summary of the method: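 Fitness measures genotype enrichment against wild-type enrichment on a logarithmic scale, with inverse-variance-weighted averaging of replicates. The logarithm is base 2, and genotypes were kept only with ≥10 input reads and ≥1 read per output in Illumina sequencing. The sequenced libraries came from one triplicate in vitro selection round, including frozen incubation at −7 °C, of PCR-built, transcribed mutant libraries of each subunit of a heterodimeric triplet polymerase ribozyme.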

Variant | polymerase ribozyme fitness (log ratio)
A49U | -0.673
A49C | -4.19
A49G | -0.331
A49C A52U G84A C105U G124U | ≤ -4.2
A49C G62U A107U G152A | ≤ -4.2
G48U G94A U151C | ≤ -4.2
A49C C103A | -3.96
A49C C54U U55A A91U C108U G152A | ≤ -4.2
A49G G126U | -0.157
G48U C85U G140U | ≤ -4.2
A49G U101C C114G U134C | -3.89
A49C U101G G141U | -1.78
G48C G59C A73G C76U C96U U101C | -3.78
A49C C75U C76A U77G G81U C87U C93U G94A C131G U134G | ≤ -4.2
A49C C103G A110C | ≤ -4.2
A49C G141A | -3.79
A49C G141C | -4.14
A49C G68C G94U A97U C114G G126A U127G | ≤ -4.2
A49G A52C | -1.27
G48U G59A C93U | -1.39
A49U A107C | ≤ -4.2
G50A | -1.02
A49U C54G U55A G59A A60G U90G A106U G124C | ≤ -4.2
G48C G92U | -1.69

Variant | polymerase ribozyme fitness (log ratio)
G48C U145G | -0.0374
A49G C57U C75A U146G | ≤ -4.2
G48C C51U C69A C116G | ≤ -4.2
A49U C54G C72A U82G A110U | ≤ -4.2
A49U C93U | -1.38
G48C G126U | -0.372
G48C C93G | -3.04
A49G G74C U101G G112C A122U U127A A138C | ≤ -4.2
A49U C54U | -1.34
G48U G126U | -0.307
A49U A89U C132U | -2.65
A49G A122U G124U | -0.811
A49U U53A A64G G84U U90C C96A A97G G124U G140A | ≤ -4.2
G48C G143U | -2.25
A49C C99G | ≤ -4.2
G48C G141A | -3.64
G48C G141U | -1.8
G48C | 0.0216
G48U | 0.247
A49G A73G | -0.67
A49C A52G C85U U101G U127G U144G | ≤ -4.2
A49C C51U A73G | ≤ -4.2
G50A A60C G86A | -3.81
G48C U82G G128C U135A | -3.96

Variant | polymerase ribozyme fitness (log ratio)
A49G A106G | -1.08
A49G G133C | -2.21
G48C A49C A122U | -3.93
A49U A91G | ≤ -4.2
G48C C51U C85U C129A U145C | ≤ -4.2
A49C U77G G94C | ≤ -4.2
A49C G62A G94C A122U C132G A142C | ≤ -4.2
A49G A113U | -2.42
A49G G58A | -0.296
G48U C96G | -1.13
G48U C96A | -0.685
G48U C149G | ≤ -4.2
A49G C114U U144A | -4.06
A49C U77G A121C U148A | ≤ -4.2
G48U C93G | -3.47
A49C A52G G58C G84A C131G G133C U145A | ≤ -4.2
A49G A142C | -1.59
A49C U61G G62A G81C | -4.13
G48U U55A C99U | -2.23
G48C A49C A60G U61A A66G C87A | ≤ -4.2
A49G G84A G152A | -2.8
G48C G50A U55A | -3.03
A49C C79U U151G | ≤ -4.2
A49U G59A A115U A119C | -3.36

Variant | polymerase ribozyme fitness (log ratio)
A49C U53A G86U A115G | ≤ -4.2
A49G G92C A115U | -3.24
G48U C75G G92U | ≤ -4.2
A49C C54U | ≤ -4.2
A49C U55A | ≤ -4.2
G48C G58A A91G | -3.21
A49C G59A A60G A106G | ≤ -4.2
A49U G50C G65C A97U U101G C129G G143U | ≤ -4.2
G48U G50C C85G A98U C99U C149U | ≤ -4.2
A49C G84C | ≤ -4.2
A49G A52G U55A G67A A107U G133C A137G U139C | ≤ -4.2
G48C G94A | -0.224
A49C G50C G67C C72G G84A C108A A142G A147U | ≤ -4.2
A49G G83A U144G A147U | -1.87
G50A A64C C95G C114U | ≤ -4.2
A49G C54A C118A | -3.25
A49G C87A A89C U90A C129U | ≤ -4.2
A49U U82G | -0.129
A49C G94C U104G | ≤ -4.2
A49C G50C G81C A110U | ≤ -4.2
A49C G58C A66G C93G A107U A120U | ≤ -4.2
G48C C57G G67U C85A C93A C96U G140C | ≤ -4.2
G48U C118G | -0.339
G48C G70A C75G C87G C93G G140A G152A | -4.11

Variant | polymerase ribozyme fitness (log ratio)
G48U G59C G81A A97U | -1.88
A49C G50C A91U C96G | ≤ -4.2
A49C G84C U90G C103G A115U | ≤ -4.2
G48C C63U A142G | -1.03
G48A U55A C57G A66U G83C U90A C108U G124U | ≤ -4.2
A49U G88A | ≤ -4.2
A49G A97G | -1.11
G48C G58C C63A G74C G81A A89U A137C | ≤ -4.2
G48U U55A C96G A115U | -4.16
A49U C96G | -0.972
A49G U139A | -4.08
A49C G74C C87A C125U | ≤ -4.2
G48C U53G | -3.59
A49G G84A | -0.52
A49U C85G | -2.96
G48A G136U | -2.5
A49C C85U | -3.49
G48C C125G | -0.571
A49G C75U C96G | -2.68
G48U G65A C95U C105U C129G C132U | ≤ -4.2
A49U A52C | -0.692
A49U C103G | ≤ -4.2
A49C C51G | -4.14
A49C C87U | -4.01

Variant | polymerase ribozyme fitness (log ratio)
A49C A52U A138U | ≤ -4.2
A49G A52C C95U C96A C99A | ≤ -4.2
A49G A52G G68U C69G G100C | ≤ -4.2
G48C C63U C69U G74A C93A U102G A107G | ≤ -4.2
A49U A110U G117U | ≤ -4.2
G48C C57A C75G G83U A106G A107G A113U | ≤ -4.2
A49G A60U | -1.62
A49G G71A C93G | ≤ -4.2
G48C A60G C76G G94C U104C C131U | ≤ -4.2
A49G C93A U134A U146G | ≤ -4.2
A49C C79A C108U C123A | ≤ -4.2
G48C G70A G88U C96G | ≤ -4.2
A49C G67A G92U A138C | ≤ -4.2
G48C G84A A121G U134A G143A | -3.91
A49G C93G U102G A106G | ≤ -4.2
A49C G50C C76U A91U A97U U111C G143C A150U | ≤ -4.2
A49U G58C A66G G80U C85A C87A C108G G128U C149U | ≤ -4.2
G48C A110C G141U U148G | ≤ -4.2
G48C G50U G59U U82A G92C | -3.41
A49G G62U C63U C96A A122U | -3.19
A49U A66G G80C G84U U102G | ≤ -4.2
A49U U53A G92U C116A | -1.33
A49U U61A C87A G140C | ≤ -4.2
A49U U55G C103A U111C A138G G152A | ≤ -4.2

Variant | polymerase ribozyme fitness (log ratio)
G48U A52U C93A C95U U145A | ≤ -4.2
A49G U55A | -0.644
A49U G58C | -0.846
A49C U109G G152U | -4.18
A49C A89U A138U | ≤ -4.2
A49C U56A A60U | ≤ -4.2
A49C A52C C96A U102G U127C U148A | ≤ -4.2
G50A A60U C96U U127A | -3.79
A49G G50A C54A A66G U82A C108U C125A | ≤ -4.2
A49C A106G | -4.12
A49C U53A C54A C87U U102C | ≤ -4.2
A49G G50C C95U A98G U145G | -2.77
A49C C96A | -3.04
A49U C57G U61A A73G G88C A97C U135A G152A | ≤ -4.2
A49G C85G C93U | ≤ -4.2
A49G G50A U55A U146C | -1.98
A49C A91U C95A A107U | ≤ -4.2
G48C U55A A107U U111G | ≤ -4.2
A49C C57U U101G | -2.69
A49C G68A C96U A98C C108G | ≤ -4.2
G48C U55A | -0.498
A49C G86A C129A C132U U148A G152U | ≤ -4.2
G48C A91G C105U A147G | ≤ -4.2
